Results: patent US20210355178A1 (published 2021)

Molecular target: complement factor C3b (UniProt P01024 23-667; P01024 749-1663)
Assay: SPR; steady-state fit

Sequence of complement factor C3b (P01024 23-667, chain 1 of 2): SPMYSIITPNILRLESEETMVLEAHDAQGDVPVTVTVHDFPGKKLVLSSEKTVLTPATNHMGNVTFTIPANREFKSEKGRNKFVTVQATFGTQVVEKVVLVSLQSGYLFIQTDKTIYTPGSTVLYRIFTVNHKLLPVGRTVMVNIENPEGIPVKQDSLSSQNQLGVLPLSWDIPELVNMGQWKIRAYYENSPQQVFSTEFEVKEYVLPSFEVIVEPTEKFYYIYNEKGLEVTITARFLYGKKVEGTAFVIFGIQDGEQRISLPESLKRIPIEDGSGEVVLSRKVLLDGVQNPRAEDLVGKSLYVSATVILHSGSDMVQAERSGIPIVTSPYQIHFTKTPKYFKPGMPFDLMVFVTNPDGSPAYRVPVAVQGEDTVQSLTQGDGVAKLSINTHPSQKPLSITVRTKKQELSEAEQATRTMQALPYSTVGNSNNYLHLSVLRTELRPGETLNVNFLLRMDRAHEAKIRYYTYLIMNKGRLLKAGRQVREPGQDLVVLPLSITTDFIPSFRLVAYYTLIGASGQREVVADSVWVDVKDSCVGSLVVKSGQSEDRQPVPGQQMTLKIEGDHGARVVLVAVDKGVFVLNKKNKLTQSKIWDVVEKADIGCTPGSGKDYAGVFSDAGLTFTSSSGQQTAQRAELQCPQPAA
Sequence of complement factor C3b (P01024 749-1663, chain 2 of 2): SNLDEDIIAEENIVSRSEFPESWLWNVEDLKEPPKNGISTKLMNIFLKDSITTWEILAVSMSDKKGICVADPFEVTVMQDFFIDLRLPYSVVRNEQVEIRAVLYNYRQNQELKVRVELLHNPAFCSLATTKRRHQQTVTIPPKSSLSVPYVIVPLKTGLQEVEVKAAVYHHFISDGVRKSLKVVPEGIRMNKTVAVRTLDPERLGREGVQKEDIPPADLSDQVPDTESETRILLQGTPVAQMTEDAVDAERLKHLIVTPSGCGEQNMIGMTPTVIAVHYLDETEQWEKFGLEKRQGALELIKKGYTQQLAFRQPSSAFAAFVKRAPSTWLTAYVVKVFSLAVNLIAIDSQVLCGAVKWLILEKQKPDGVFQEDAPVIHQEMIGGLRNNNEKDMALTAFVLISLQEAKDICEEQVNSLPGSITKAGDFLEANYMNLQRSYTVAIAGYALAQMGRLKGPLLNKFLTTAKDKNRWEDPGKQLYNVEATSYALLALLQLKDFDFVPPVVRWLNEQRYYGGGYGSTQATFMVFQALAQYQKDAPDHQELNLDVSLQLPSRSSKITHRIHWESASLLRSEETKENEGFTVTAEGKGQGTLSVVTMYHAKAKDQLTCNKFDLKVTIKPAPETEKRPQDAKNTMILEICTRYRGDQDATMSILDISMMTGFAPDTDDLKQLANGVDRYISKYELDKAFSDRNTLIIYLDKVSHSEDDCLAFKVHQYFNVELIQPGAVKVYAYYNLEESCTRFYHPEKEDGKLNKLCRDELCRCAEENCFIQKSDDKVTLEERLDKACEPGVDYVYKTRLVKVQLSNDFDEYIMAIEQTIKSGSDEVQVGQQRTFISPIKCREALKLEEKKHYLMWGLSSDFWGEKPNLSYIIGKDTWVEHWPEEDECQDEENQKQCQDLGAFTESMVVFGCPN

Kd	Binder
300 nM	miniFH-Fc (Fc fusion) EDCNELPPRRNTEILTGSWSDQTYPEGTQAIYKCRPGYRSLGNIIMVCRKGEWVALNPLRKCQKRPCGHPGDTPFGTFTLTGGNVFEYGVKAVYTCNEGYQLLGEINYRECDTDGWTNDIPICEVVKCLPVTAPENGKIVSSAMEPDREYHFGQAVRFVCNSGYKIEGDEEMHCSDDGFWSKEKPKCVEISCKSPDVINGSPISQKIIYKENERFQYKCNMGYEYSERGDAVCTESGWRPLPSCEEAGGGGGGGGGGGGGKCGPPPPIDNGDITSFPLSVYAPASSVEYQCQNLYQLEGNKRITCRNGQWSEPPKCLHPCVISREIMENYNIALRWTAKQKLYSRTGESVEFVCKRGYRLSSRSHTLRTTCWDGKLEYPTCAGPGGGGGPGCPAPELLGGPSVFLFPPKPKDTLMISRTPEVTCVVVDVSHEDPEVKFNWYVDGVEVHNAKTKPREEQYQSTYRVVSVLTVLHQDWLNGKEYKCKVSNKALPAPIEKTISKAKGQPREPQVYTLPPSREEMTKNQVSLTCLVKGFYPSDIAVEWESNGQPENNYKTTPPVLDSDGSFFLYSKLTVDKSRWQQGNVFSCSVMHEALHNHYTQKSLSLSPGGGGGGG
588 nM	miniFH (designed binder) EDCNELPPRRNTEILTGSWSDQTYPEGTQAIYKCRPGYRSLGNIIMVCRKGEWVALNPLRKCQKRPCGHPGDTPFGTFTLTGGNVFEYGVKAVYTCNEGYQLLGEINYRECDTDGWTNDIPICEVVKCLPVTAPENGKIVSSAMEPDREYHFGQAVRFVCNSGYKIEGDEEMHCSDDGFWSKEKPKCVEISCKSPDVINGSPISQKIIYKENERFQYKCNMGYEYSERGDAVCTESGWRPLPSCEEAGGGGGGGGGGGGGKCGPPPPIDNGDITSFPLSVYAPASSVEYQCQNLYQLEGNKRITCRNGQWSEPPKCLHPCVISREIMENYNIALRWTAKQKLYSRTGESVEFVCKRGYRLSSRSHTLRTTCWDGKLEYPTCAKR
